Assay [1] has as its target T1, recombinant His-tagged 6xEMPD (6 times repeated EMPD of mouse mIgE) (Mus musculus (mouse), membrane IgE …).
T1 chain: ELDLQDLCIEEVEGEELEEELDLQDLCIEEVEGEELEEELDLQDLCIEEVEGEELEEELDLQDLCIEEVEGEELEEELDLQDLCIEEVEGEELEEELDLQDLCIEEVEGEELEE
Description: ELISA. (In an ELISA, binding on a coated surface is turned into a signal by an enzyme label.)

In assay [2] the target is T1, recombinant His-tagged 6xEMPD (6 times …). Briefly: SPR.

B1: mAbA9, mouse monoclonal anti-mouse EMPD antibody of γ1 isotype (antibody, V domains shown)
VH: EVQLVESGGGLVQPGGSLRLSCATSGFTFTDYYMTWVRQPPGKALEWLGFIRNKANGYTTEYSASVKGRFTVSRDNSQSILYLQMNTLRAEDSATYYCASPIYYGSPSWLWTYWGQGTSVTVSS
VL: QIVLTQSPAIMAASLGQKVTMTCSASSSVSSSYLHWYQQKSGASPKPLIHRTSNLASGVPARFSGSGSGTSYSLTISSVEAEDDATYYCQQWSGYPLTFGAGTKLELK
Take B1: the “% competition at 10-fold molar excess of 6xEMPD” value in assay [1] was 43%. The dissociation constant (Kd) (in general, the equilibrium constant for the complex coming apart) in assay [2] was 7.4 nM.

The record behind these values is paper PMC2959155 (Journal of immunology (Baltimore, Md. : 1950), 2008).
